The text below walks through data of the Human Domainome abundance scans (Beltran et al. 2025).

The labels stand for the following.
B1: DnaJ homolog subfamily C member 5, residues 16 to 77; numbered along this chain, Q9H3Z4 (parent)
chain: LYHVLGLDKNATSDDIKKSYRKLALKYHPDKNPDNPEAADKFKEINNAHAILTDATKRNIYD

± gives the uncertainty stated by the source.

The series covers variants of B1. The series can be described thus: abundance fitness (aPCA) (normalised: wild type 0, dead -1); higher = more abundant; growth selection in yeast, the domain comes from the species named. The settings on record: Homo sapiens.
With LYHVLGLDKNATSDDIKKSYRKLALKYHPDKNPDNPEAADKFKEINNAHAILTDATLRNIYD, the abundance fitness was -0.399 ± 0.079. For LYHVLGLDKNATSDDIKKSYRKLALKYHPDKNPDNPEAADKFKEINNAHAILTDATIRNIYD, the abundance fitness is -0.511 ± 0.13. For LYHVLGLDKNATSDDIKKSYRKLALKYHPDKNPDNPEAADKFKEINNAHAILTDATDRNIYD, the abundance fitness is -0.079 ± 0.14. Regarding LYHVLGLDKNATSDDIKKSYRKLALKYHPDKNPDNPEAADKFKEINNAHAILTDATGRNIYD, the abundance fitness is -0.373 ± 0.079. Regarding LYHVLGLDKNATSDDIKKSYRKLALKYHPDKNPDNPEAADKFKEINNAHAILTDATSRNIYD, the abundance fitness was -0.349 ± 0.11.

For LYHVLGLDKNATSDDIKKSYRKLALKYHPDKNPDNPEAADKFKEINNAHAILTDATVRNIYD, the abundance fitness was -0.656 ± 0.1.

For LYHVLGLDKNATSDDIKKSYRKLALKYHPDKNPDNPEAADKFKEINNAHAILTDATERNIYD, the abundance fitness was -0.023 ± 0.096. For the variant LYHVLGLDKNATSDDIKKSYRKLALKYHPDKNPDNPEAADKFKEINNAHAILTDALKRNIYD, the abundance fitness is -0.421 ± 0.09.

Consider LYHVLGLDKNATSDDIKKSYRKLALKYHPDKNPDNPEAADKFKEINNAHAILTDAGKRNIYD, for which the abundance fitness is -0.09 ± 0.065. Turning to LYHVLGLDKNATSDDIKKSYRKLALKYHPDKNPDNPEAADKFKEINNAHAILTDAYKRNIYD, the abundance fitness was -0.424 ± 0.27. Consider LYHVLGLDKNATSDDIKKSYRKLALKYHPDKNPDNPEAADKFKEINNAHAILTDAKKRNIYD, for which the abundance fitness is -0.101 ± 0.12. For the variant LYHVLGLDKNATSDDIKKSYRKLALKYHPDKNPDNPEAADKFKEINNAHAILTDAMKRNIYD, the abundance fitness is -0.334 ± 0.21.

Regarding LYHVLGLDKNATSDDIKKSYRKLALKYHPDKNPDNPEAADKFKEINNAHAILTDARKRNIYD, the abundance fitness was -0.246 ± 0.066. In the case of LYHVLGLDKNATSDDIKKSYRKLALKYHPDKNPDNPEAADKFKEINNAHAILTDASKRNIYD, the abundance fitness was -0.15 ± 0.092. For LYHVLGLDKNATSDDIKKSYRKLALKYHPDKNPDNPEAADKFKEINNAHAILTDAIKRNIYD, the abundance fitness is -0.425 ± 0.14.

Consider LYHVLGLDKNATSDDIKKSYRKLALKYHPDKNPDNPEAADKFKEINNAHAILTDAFKRNIYD, for which the abundance fitness is -0.499 ± 0.26. Regarding LYHVLGLDKNATSDDIKKSYRKLALKYHPDKNPDNPEAADKFKEINNAHAILTDAPKRNIYD, the abundance fitness was -0.516 ± 0.11. Under LYHVLGLDKNATSDDIKKSYRKLALKYHPDKNPDNPEAADKFKEINNAHAILTDAVKRNIYD stands -0.396 ± 0.1; under LYHVLGLDKNATSDDIKKSYRKLALKYHPDKNPDNPEAADKFKEINNAHAILTDAEKRNIYD, 0.097 ± 0.16; under LYHVLGLDKNATSDDIKKSYRKLALKYHPDKNPDNPEAADKFKEINNAHAILTDAWKRNIYD, -0.475 ± 0.13. As to LYHVLGLDKNATSDDIKKSYRKLALKYHPDKNPDNPEAADKFKEINNAHAILTDACKRNIYD, the abundance fitness was -0.069 ± 0.12. As to LYHVLGLDKNATSDDIKKSYRKLALKYHPDKNPDNPEAADKFKEINNAHAILTDADKRNIYD, the abundance fitness was -0.095 ± 0.2. With LYHVLGLDKNATSDDIKKSYRKLALKYHPDKNPDNPEAADKFKEINNAHAILTDAAKRNIYD the figure was -0.233 ± 0.15. Consider LYHVLGLDKNATSDDIKKSYRKLALKYHPDKNPDNPEAADKFKEINNAHAILTDAQKRNIYD, for which the abundance fitness is -0.417 ± 0.18. LYHVLGLDKNATSDDIKKSYRKLALKYHPDKNPDNPEAADKFKEINNAHAILTDAHKRNIYD: the abundance fitness was -0.264 ± 0.11. As to LYHVLGLDKNATSDDIKKSYRKLALKYHPDKNPDNPEAADKFKEINNAHAILTDATKRNDYD, the abundance fitness is 0.493 ± 0.21.

LYHVLGLDKNATSDDIKKSYRKLALKYHPDKNPDNPEAADKFKEINNAHAILTDATKRNGYD: the abundance fitness was found to be 0.223 ± 0.065.

Take LYHVLGLDKNATSDDIKKSYRKLALKYHPDKNPDNPEAADKFKEINNAHAILTDATKRNLYD: the abundance fitness is 0.077 ± 0.093. For the variant LYHVLGLDKNATSDDIKKSYRKLALKYHPDKNPDNPEAADKFKEINNAHAILTDATKRNEYD, the abundance fitness came out at 0.522 ± 0.094. With LYHVLGLDKNATSDDIKKSYRKLALKYHPDKNPDNPEAADKFKEINNAHAILTDATKRNPYD, the abundance fitness was -0.039 ± 0.088. On to LYHVLGLDKNATSDDIKKSYRKLALKYHPDKNPDNPEAADKFKEINNAHAILTDATKRNCYD, for which the abundance fitness turned out to be 0.109 ± 0.1. Under LYHVLGLDKNATSDDIKKSYRKLALKYHPDKNPDNPEAADKFKEINNAHAILTDATKRNKYD stands 0.197 ± 0.11; under LYHVLGLDKNATSDDIKKSYRKLALKYHPDKNPDNPEAADKFKEINNAHAILTDATKRNRYD, 0.08 ± 0.059; under LYHVLGLDKNATSDDIKKSYRKLALKYHPDKNPDNPEAADKFKEINNAHAILTDATKRNMYD, 0.114 ± 0.1.

With LYHVLGLDKNATSDDIKKSYRKLALKYHPDKNPDNPEAADKFKEINNAHAILTDATKRNQYD, the abundance fitness is 0.168 ± 0.13. Take LYHVLGLDKNATSDDIKKSYRKLALKYHPDKNPDNPEAADKFKEINNAHAILTDATKRNAYD: the abundance fitness came out at 0.257 ± 0.092. Under LYHVLGLDKNATSDDIKKSYRKLALKYHPDKNPDNPEAADKFKEINNAHAILTDATKRNHYD stands -0.135 ± 0.2; under LYHVLGLDKNATSDDIKKSYRKLALKYHPDKNPDNPEAADKFKEINNAHAILTDATKRNSYD, 0.258 ± 0.076; under LYHVLGLDKNATSDDIKKSYRKLALKYHPDKNPDNPEAADKFKEINNAHAILTDWTKRNIYD, -0.413 ± 0.096. Turning to LYHVLGLDKNATSDDIKKSYRKLALKYHPDKNPDNPEAADKFKEINNAHAILTDSTKRNIYD, the abundance fitness was -0.135 ± 0.093. Consider LYHVLGLDKNATSDDIKKSYRKLALKYHPDKNPDNPEAADKFKEINNAHAILTDVTKRNIYD, for which the abundance fitness was -0.14 ± 0.1.

As for LYHVLGLDKNATSDDIKKSYRKLALKYHPDKNPDNPEAADKFKEINNAHAILTDRTKRNIYD, the abundance fitness was -0.156 ± 0.072. On to LYHVLGLDKNATSDDIKKSYRKLALKYHPDKNPDNPEAADKFKEINNAHAILTDYTKRNIYD, for which the abundance fitness was -0.423 ± 0.27.
